The values that follow come from patent US20230093708A1, “PROTEIN NANOPARTICLE DESIGN AND APPLICATION” (Duke University, priority 2020, published 2023).

Data set [1] is described as follows: Static and dynamic light scattering (SLS/DLS) of block co-polypeptides. Conditions: for Nagg / Rg(nm) / Rh (nm) / ρ: Table 3; for Nagg / Rg(nm) / Rh (nm): 10 μM in PBS, 15 °C; for ρ: shape factor Rg/Rh. It is filed as physicochemical. As to the method:
Key parameters of interest are the hydrophilicity of the corona-forming block, the hydrophilicity of the core block, the overall length of the co-polypeptide and the ratio of the two blocks. Parameters of evaluation are the size, morphology, stability, and thermoresponsive behavior. All measurements were made in 140 mM NaCl, 10 mM phosphate buffer, 3 mM KCl, pH 7.4 unless otherwise specified. Size was evaluated by the hydrodynamic radios (Rh) and radius of gyration (Rg) by dynamic light scattering (DLS) and static light scattering (SLS) respectively. Rg and Rh can be combined to yield the shape factor ρ=Rg/Rh, which provides a rough indication of the morphology of the scatterer. […] For an elongated scatterer, the shape factor depends upon the aspect ratio. A combination of temperature dependent turbidity and DLS was utilized to determine the phase behavior of the block co-polypeptides. Cryogenic transmission electron microscopy (Cryo-TEM) was utilized to evaluate the morphology and provide crucial insight into the hydration of the core/corona chains. Stability of the assembled nanostructure was determined by a shift in the I1/I3 fluorescent bands of pyrene as described previously.
Static and dynamic light scattering measurements (SLS/DLS) were performed using an ALV/CGS-3 goniometer system (Langen, Germany). Samples for the ALV/CGS-3 goniometer system were prepared at a concentration of 10 μM in PBS and filtered through 0.45 μm Millex-GV filters into a 10 mm disposable borosilicate glass tube (Fischer). Simultaneous SLS and DLS measurements were obtained at 15° C. of the ELP for angles between 30°-150° at 5° increments, with each angle consisting of 3 runs for 15 s. SLS experiments were only conducted for self-assembling block co-polypeptides, since the molecular weight of a single block co-polypeptide chain is already known, and the Rg of a single chain is likely near or below the detection limit of the SLS instrument. The differential refractive index (dn/dc) was determined by measuring the refractive index at different concentrations using an Abbemat 500 refractometer (Anton Paar, Graz, Austria). DLS data were analyzed by fitting the autocorrelation function with a cumulant fit, using the built-in ALV software. Hydrodynamic radius (Rh) was plotted against angle and extrapolated to zero. SLS data were analyzed by partial Zimm plots using ALVSTAT software in order to determine the Rg and molecular weight (MW).

Data set [2] can be described thus: Cryo-TEM micelle core size, inter-core spacing and aspect ratio. It is filed as physicochemical. Conditions: for Spacing (nm) / Core radius (nm): Table 4, mean ± standard deviation; for Spacing (nm): inter-core spacing. Here is the method: Using the data from FIG. 18, particularly the longest straight line of an individual particle and a corresponding perpendicular measurement were made to describe the aspect ratio of particles observed.
Cryo-TEM experiments were performed at Duke University's Shared Materials Instrumentation Facility (Durham, N.C.). Lacey holey carbon grids (Ted Pella, Redding, Calif.) were glow discharged in a PELCO EasiGlow Cleaning System (Ted Pella, Redding, Calif.). A 3 μL drop (10 μM RLPn-ELP80) was deposited onto the grid, blotted for 3 s with an offset of −3 mm, and vitrified in liquid ethane using the Vitrobot Mark III (FEI, Eindhoven, Netherlands). Prior to vitrification, the sample chamber was maintained at 15° C. and 100% relative humidity to prevent sample evaporation. Grids were transferred to a Gatan 626 cryoholder (Gatan, Pleasanton, Calif.) and imaged with a FEI Tecnai G2 Twin TEM (FEI, Eindhoven, Netherlands), operating at 80 keV. Feature sizes and spacing distances were measured in ImageJ by manual measurement of at least 25 particles.

B1: RLP40-ELP40: RLP-ELP block co-polypeptide, 40 core and 40 corona repeats (protein)
chain: QYPSDGRGQYPSDGRGQYPSDGRGQYPSDGRGQYPSDGRGQYPSDGRGQYPSDGRGQYPSDGRGQYPSDGRGQYPSDGRGQYPSDGRGQYPSDGRGQYPSDGRGQYPSDGRGQYPSDGRGQYPSDGRGQYPSDGRGQYPSDGRGQYPSDGRGQYPSDGRGQYPSDGRGQYPSDGRGQYPSDGRGQYPSDGRGQYPSDGRGQYPSDGRGQYPSDGRGQYPSDGRGQYPSDGRGQYPSDGRGQYPSDGRGQYPSDGRGQYPSDGRGQYPSDGRGQYPSDGRGQYPSDGRGQYPSDGRGQYPSDGRGQYPSDGRGQYPSDGRGGAGVPGGGVPGAGVPGGGVPGAGVPGGGVPGAGVPGGGVPGAGVPGGGVPGAGVPGGGVPGAGVPGGGVPGAGVPGGGVPGAGVPGGGVPGAGVPGGGVPGAGVPGGGVPGAGVPGGGVPGAGVPGGGVPGAGVPGGGVPGAGVPGGGVPGAGVPGGGVPGAGVPGGGVPGAGVPGGGVPGAGVPGGGVPGAGVPGGGVP
In the case of B1, in data set [1], the “hydrodynamic radius (Rh)” value is listed as 52.6 nm, the “radius of gyration (Rg)” value is recorded as 56.2 nm, the “shape factor / form factor (Rg/Rh)” value is reported as “greater than 1” and the Nagg came to 91. In addition, in data set [1], the “Rg(nm)” value was 56.2 nm, the “Rh (nm)” value worked out at 52.6 nm and the ρ is on record as 1.13. Besides, in data set [2], the “core radius (cryo-TEM)” value is listed as 11.8 nm, the “spacing between particle cores (cryo-TEM)” value is recorded as 19.5 nm, the “Spacing (nm)” value came out at 19.5 ± 4.3 nm and the “Core radius (nm)” value came out at 11.8 ± 1.6 nm.

B2: RLP40-ELP160: RLP-ELP block co-polypeptide, 40 core and 160 corona repeats (protein)
chain: QYPSDGRGQYPSDGRGQYPSDGRGQYPSDGRGQYPSDGRGQYPSDGRGQYPSDGRGQYPSDGRGQYPSDGRGQYPSDGRGQYPSDGRGQYPSDGRGQYPSDGRGQYPSDGRGQYPSDGRGQYPSDGRGQYPSDGRGQYPSDGRGQYPSDGRGQYPSDGRGQYPSDGRGQYPSDGRGQYPSDGRGQYPSDGRGQYPSDGRGQYPSDGRGQYPSDGRGQYPSDGRGQYPSDGRGQYPSDGRGQYPSDGRGQYPSDGRGQYPSDGRGQYPSDGRGQYPSDGRGQYPSDGRGQYPSDGRGQYPSDGRGQYPSDGRGQYPSDGRGGAGVPGGGVPGAGVPGGGVPGAGVPGGGVPGAGVPGGGVPGAGVPGGGVPGAGVPGGGVPGAGVPGGGVPGAGVPGGGVPGAGVPGGGVPGAGVPGGGVPGAGVPGGGVPGAGVPGGGVPGAGVPGGGVPGAGVPGGGVPGAGVPGGGVPGAGVPGGGVPGAGVPGGGVPGAGVPGGGVPGAGVPGGGVPGAGVPGGGVPGAGVPGGGVPGAGVPGGGVPGAGVPGGGVPGAGVPGGGVPGAGVPGGGVPGAGVPGGGVPGAGVPGGGVPGAGVPGGGVPGAGVPGGGVPGAGVPGGGVPGAGVPGGGVPGAGVPGGGVPGAGVPGGGVPGAGVPGGGVPGAGVPGGGVPGAGVPGGGVPGAGVPGGGVPGAGVPGGGVPGAGVPGGGVPGAGVPGGGVPGAGVPGGGVPGAGVPGGGVPGAGVPGGGVPGAGVPGGGVPGAGVPGGGVPGAGVPGGGVPGAGVPGGGVPGAGVPGGGVPGAGVPGGGVPGAGVPGGGVPGAGVPGGGVPGAGVPGGGVPGAGVPGGGVPGAGVPGGGVPGAGVPGGGVPGAGVPGGGVPGAGVPGGGVPGAGVPGGGVPGAGVPGGGVPGAGVPGGGVPGAGVPGGGVPGAGVPGGGVPGAGVPGGGVPGAGVPGGGVPGAGVPGGGVPGAGVPGGGVPGAGVPGGGVPGAGVPGGGVPGAGVPGGGVPGAGVPGGGVPGAGVPGGGVPGAGVPGGGVPGAGVPGGGVPGAGVPGGGVPGAGVPGGGVPGAGVPGGGVPGAGVPGGGVPGAGVPGGGVPGAGVPGGGVPGAGVPGGGVP
On to B2, for which, in data set [1], the “hydrodynamic radius (Rh)” value came out at 92.3 nm, the “radius of gyration (Rg)” value was determined as 70.8 nm, the “shape factor / form factor (Rg/Rh)” value came to 0.8 and the Nagg is on record as 246. In addition, in data set [1], the “Rg(nm)” value was found to be 70.8 nm, the “Rh (nm)” value was 92.3 nm and the ρ turned out to be 0.8. In data set [2], the “core radius (cryo-TEM)” value is listed as 11.0 nm, the “spacing between particle cores (cryo-TEM)” value was determined as 22.3 nm, the “Spacing (nm)” value is recorded as 22.3 ± 5.2 nm and the “Core radius (nm)” value worked out at 11.0 ± 1.6 nm.

B3: RLP80-ELP160: RLP-ELP block co-polypeptide, 80 core and 160 corona repeats (protein)
chain: QYPSDGRGQYPSDGRGQYPSDGRGQYPSDGRGQYPSDGRGQYPSDGRGQYPSDGRGQYPSDGRGQYPSDGRGQYPSDGRGQYPSDGRGQYPSDGRGQYPSDGRGQYPSDGRGQYPSDGRGQYPSDGRGQYPSDGRGQYPSDGRGQYPSDGRGQYPSDGRGQYPSDGRGQYPSDGRGQYPSDGRGQYPSDGRGQYPSDGRGQYPSDGRGQYPSDGRGQYPSDGRGQYPSDGRGQYPSDGRGQYPSDGRGQYPSDGRGQYPSDGRGQYPSDGRGQYPSDGRGQYPSDGRGQYPSDGRGQYPSDGRGQYPSDGRGQYPSDGRGQYPSDGRGQYPSDGRGQYPSDGRGQYPSDGRGQYPSDGRGQYPSDGRGQYPSDGRGQYPSDGRGQYPSDGRGQYPSDGRGQYPSDGRGQYPSDGRGQYPSDGRGQYPSDGRGQYPSDGRGQYPSDGRGQYPSDGRGQYPSDGRGQYPSDGRGQYPSDGRGQYPSDGRGQYPSDGRGQYPSDGRGQYPSDGRGQYPSDGRGQYPSDGRGQYPSDGRGQYPSDGRGQYPSDGRGQYPSDGRGQYPSDGRGQYPSDGRGQYPSDGRGQYPSDGRGQYPSDGRGQYPSDGRGQYPSDGRGQYPSDGRGQYPSDGRGQYPSDGRGGAGVPGGGVPGAGVPGGGVPGAGVPGGGVPGAGVPGGGVPGAGVPGGGVPGAGVPGGGVPGAGVPGGGVPGAGVPGGGVPGAGVPGGGVPGAGVPGGGVPGAGVPGGGVPGAGVPGGGVPGAGVPGGGVPGAGVPGGGVPGAGVPGGGVPGAGVPGGGVPGAGVPGGGVPGAGVPGGGVPGAGVPGGGVPGAGVPGGGVPGAGVPGGGVPGAGVPGGGVPGAGVPGGGVPGAGVPGGGVPGAGVPGGGVPGAGVPGGGVPGAGVPGGGVPGAGVPGGGVPGAGVPGGGVPGAGVPGGGVPGAGVPGGGVPGAGVPGGGVPGAGVPGGGVPGAGVPGGGVPGAGVPGGGVPGAGVPGGGVPGAGVPGGGVPGAGVPGGGVPGAGVPGGGVPGAGVPGGGVPGAGVPGGGVPGAGVPGGGVPGAGVPGGGVPGAGVPGGGVPGAGVPGGGVPGAGVPGGGVPGAGVPGGGVPGAGVPGGGVPGAGVPGGGVPGAGVPGGGVPGAGVPGGGVPGAGVPGGGVPGAGVPGGGVPGAGVPGGGVPGAGVPGGGVPGAGVPGGGVPGAGVPGGGVPGAGVPGGGVPGAGVPGGGVPGAGVPGGGVPGAGVPGGGVPGAGVPGGGVPGAGVPGGGVPGAGVPGGGVPGAGVPGGGVPGAGVPGGGVPGAGVPGGGVPGAGVPGGGVPGAGVPGGGVPGAGVPGGGVPGAGVPGGGVPGAGVPGGGVPGAGVPGGGVPGAGVPGGGVPGAGVPGGGVPGAGVPGGGVPGAGVPGGGVPGAGVPGGGVPGAGVPGGGVPGAGVPGGGVP
Consider B3, for which, in data set [1], the “hydrodynamic radius (Rh)” value is listed as 93.3 nm, the “radius of gyration (Rg)” value came to 78.2 nm, the “shape factor / form factor (Rg/Rh)” value turned out to be 0.8 and the Nagg is listed as 1728. For the same molecule, in data set [1], the “Rg(nm)” value came to 78.2 nm, the “Rh (nm)” value is recorded as 93.5 nm and the ρ is 0.84. Moreover, in data set [2], the “Spacing (nm)” value is given as 59.0 ± 13.2 nm and the “Core radius (nm)” value is reported as 29.3 ± 4.5 nm.
